Results on one molecule are retold here after patent US20250144199A1 (UNIVERSITY OF MARYLAND COLLEGE PARK, published 2025).

The assay concerns the target T1, tandem RBDs-Fc fusion protein (SARS-CoV-2 RBDs-Fc, FIG. 8C).
T1 construct: also called RBDs-IgG Fc; tandem RBD-Fc
Put plainly: ELISA, biotinylated C1q on coated protein. For orientation: ELISA stands for enzyme-linked immunosorbent assay.

B1: mouse C1q protein (Complement Technology Cat #M099), biotin-conjugated (other)
chain 1: EDVCRAPNGKDGAPGNPGRPGRPGLKGERGEPGAAGIRTGIRGFKGDPGESGPPGKPGNVGLPGPSGPLGDSGPQGLKGVKGNPGNIRDQPRPAFSAIRQNPMTLGNVVIFDKVLTNQESPYQNHTGRFICAVPGFYYFNFQVISKWDLCLFIKSSSGGQPRDSLSFSNTNNKGLFQVLAGGTVLQLRRGDEVWIEKDPAKGRIYQGTEADSIFSGFLIFPSA
chain 2: QSSCTGPPGIPGIPGVPGVPGSDGQPGTPGIKGEKGLPGLAGDLGEFGEKGDPGIPGTPGKVGPKGPVGPKGTPGPSGPRGPKGDSGDYGATQKVAFSALRTINSPLRPNQVIRFEKVITNANENYEPRNGKFTCKVPGLYYFTYHASSRGNLCVNLVRGRDRDSMQKVVTFCDYAQNTFQVTTGGVVLKLEQEEVVHLQATDKNSLLGIEGANSIFTGFLLFPDMDA
chain 3: SAGCYGIPGMPGMPGAPGKDGHDGLQGPKGEPGIPAVPGTRGPKGQKGEPGMPGHRGKNGPRGTSGLPGDPGPRGPPGEPGVEGRYKQKHQSVFTVTRQTTQYPEANALVRFNSVVTNPQGHYNPSTGKFTCEVPGLYYFVYYTSHTANLCVHLNLNLARVASFCDHMFNSKQVSSGGVLLRLQRGDEVWLSVNDYNGMVGIEGSNSVFSGFLLFPD
For the molecule B1, the binding result was “no binding (tested: C1q 2 µg/ml; 800-7.8 ng/well coated)”.
